According to patent publication US20260069689A1 (Regeneron, published 2026):

Columns and labels:
SARS-COV-2 RBD-MMH [1] = target: SARS-COV-2 RBD-MMH (SARS-CoV-2); assay: SPR 37C
SARS-COV-2 RBD-MMH [2] = target: SARS-COV-2 RBD-MMH (SARS-CoV-2); assay: SPR 37C, run with dissociation at pH 5.0
SARS-COV-2 RBD-MMH [3] = target: SARS-COV-2 RBD-MMH (SARS-CoV-2); assay: SPR 37C, run with dissociation at pH 7.4

| Binder | t½ Ratio of pH 7.4 to pH 5.0 (SARS-COV-2 RBD-MMH [1]) | RBD.mmh Bound at pH 7.4 (RU) (SARS-COV-2 RBD-MMH [2]) | koff (SARS-COV-2 RBD-MMH [2]) [s⁻¹] | t½ (SARS-COV-2 RBD-MMH [2]) [min] | RBD.mmh Bound at pH 7.4 (RU) (SARS-COV-2 RBD-MMH [3]) | koff (SARS-COV-2 RBD-MMH [3]) [s⁻¹] |
| --- | --- | --- | --- | --- | --- | --- |
| mAb15156 (antibody, V domains shown) VH: QLQLQESGPGLVKSSETLSLTCTVSASITGSTYYWGWIRQPPGKGLEWIGSIYYSGTTYYKASLKSRVTISVDTSKNQFSLKLTSVTVADTAVYYCVSHLLGNYHKYGMDVWGQGTTVTVSS VL: not shown | 2.3 | 104 | 0.0158 | 0.7 | 92.6 | 0.00673 |
| mAb15157 (antibody, V domains shown) VH: EVQLVESGGALVQPGGSLRLSCAASGFPFTIYAMTWVRQAPGKGLEWVSVITGSGDSTYYADSVKGRFTISRDNSKNTLYLQMNSLRAEDTAVYYCVKTGEGFFYYYYGMDVWGQGTTVTVSS VL: QSVLTQPPSVSAAPGQKVTISCSGSSSNIGNSYISWYQQLPGTAPKLLIYVNNKRPSGIPDRFSGSKSGTSATLGITGLQTGDEADYYCGTWDSSLSAGVFGSGTKVTVLG | 1.7 | 108 | 0.00702 | 1.6 | 106 | 0.00405 |
| mAb15158 (antibody, V domains shown) VH: EVQLVESGGGLVQPGGSLRLSCAASGFSFSSNWMSWVRQAPGKGLEWVGNINQDGSEKYYVDSVEGRFTISRDNAKKSLYLQMNSLRAEDTAVYYCARDLGVLWFGDFVDWGQGALVTVSS VL: DIQMTQSPSSLSASVGDRVTITCRASQAISNSLAWYQQKPGKAPKLLLYAASTLESGVPSRFSGSGSGTDYTLTISSLQPEDFATYYCLQYYGSPRTFGQGTKVEIKR | 0.3 | 122 | 9.7e-05 | 119 | 111 | 0.00031 |
| mAb15159 (antibody, V domains shown) VH: EVQLVESGGGLVQPGGSLRLSCAASGITVSSNYMTWVRQAPGKGLEWVSLIYSGGSTFYADSVRGRFTISRDNSKNTLYLQMNSLRAEDTAVYYCARDLVVYGMDVWGQGTTVTVSS VL: DIQLTQSPSSLSASVGDRVTITCRASQGISSYLAWYQQKPGKAPKLLIYAASTLQSGVPSRFSGSGSGTDFTLTISSLQPEDFATYYCQHLNSDPHTFGQGTKLEIKR | 1.9 | 45.5 | 0.000429 | 27 | 31.9 | 0.000231 |
| mAb15160 (antibody, V domains shown) VH: EVQLVESGGGLVQPGGSLRLSCSASGFTFSRYAMYWVRQAPGKGLEYVSAISSDGGSTYDADSVKGRFTISRANSKNTLYLQMSSLRAEDTAVYYCVKGLRELLYYYYGMDVWGQGTTVTVSS VL: DIQMTQSPSSLSASVGDRVTITCRAGQSISSFLNWYQQKPGKAPKLLIYAASSLQSGVPSRFSGSGSGTDFTLTISSLQPEDFATYYCQQSYITPFTFGPGTKVDIKR | 1 | 61.3 | 0.00228 | 5.1 | 58.2 | 0.00218 |
| mAb15161 (antibody, V domains shown) VH: EVQLVESGGGLVQPGGSLRLSCAASGFTFSSYEMNWVRQAPGKGLEWVSYISSSGSILYYADSVKGRFTASRDNAKNSLYLQMNSLRAEDTGVYYCARREYQLLRPFEFWGQGTLVTVSS VL: not shown | 0.9 | 51.4 | 0.00098 | 11.8 | 39.8 | 0.00113 |
| mAb15162 (antibody, V domains shown) VH: EVQLVETGGGLIQPGGSLRLSCAASEFIVSRNYMSWVRQAPGKGLEWVSLIYSGGSTYYADSVKGRFTISRDNSKNILYLQMNSLRAEDTAVYYCARDRGGISDYWGQGTLVTVSS VL: DIQMTQSPSSLSASVGDRVTITCQASQDINKYLNWFQQKPGKAPKLLIYDASNLETGVPSRFSGSGSGTDFTFTISSLQPEDIATYYCQQYDNLPRTFGQGTKLEIKR | 1.8 | 131 | 0.0054 | 2.1 | 116 | 0.003 |
| mAb15163 (antibody, V domains shown) VH: EVQLVETGGGLIQPGESLRLSCAASGFIVSTNYMNWVRQAPGKGLEWVSVIYRGGSTYYADSVKGRFTISRDNSKNTLFLQMNSLRAEDTAVYYCARGHEDFDYDTPASGAFDIWGQGTMVTVSS VL: QSALTQPPSASGSPGQSVTISCTGTSSDVGGHNYVSWYQQHPGKAPKVMIYEVSKRPSGVPDRFSGSKSGNTASLTVSGLQAEDEADYYCSSYAGSNKFVFGTGTKVTVLG | 7.6 | 83.2 | 0.00377 | 3.1 | 81.9 | 0.000494 |
| mAb15164 (antibody, V domains shown) VH: EVQLVESGGGLVQPGGSLRLSCAASGFAVSSNYMTWVRQAPGKGLEWVATIYSGDSTYYADSVKGRFTISRHNSKNTLSLQMNSLRADDTAIYYCARLSGVLSGTYNGAFDIWGQGTMVTVSS VL: QSALTQPASVSGSPGQSITISCTGTSSDFGNYNIVSWYQQHPGQAPKVMIYEGNKRPSGVSNRFSGSKSGHTASLTISGLQAEDEADYYCSSYAGSSTWVFGGGTKLTVLG | 0.9 | 159 | 0.002 | 5.8 | 145 | 0.00226 |
| mAb15165 (antibody, V domains shown) VH: EVQLVESGGGLVQPGGSLRLSCAASGFTVSSNYMSWVRQAPGKGLEWVSAIYSGDSTYYADSVKGRFTISKDNSKNTLYLQMNSLRGEDTAVYYCARLGGALQAYDGAFDYWGQGTLATVSS VL: QSALTQPASVSGSPGQSITISCTGTSSDFGSYNLVSWYQQHPGKAPKLMIYEGNKRPSGVSIRFSGSKSGNTASLTISGLQAEDEADYYCSSYAGSSTWVFGGGTKLTVLG | 0.6 | 127 | 0.000973 | 11.9 | 110 | 0.00164 |
| mAb15166 (antibody, V domains shown) VH: EVQLVESGGGLVQPGGSLRLSCAASGFTVTSNYMSWVRQAPGKGLEWVSAIYSGESTYYADSVKGRFTISRDSSKNTLYLQMNSLRVEDTAVYYCASIHDYSNYVGGFDPWGQGTLVTVSS VL: QSALTQPASVSGSPGQSITISCTGPSSDFGSYNLVSWYQQHPGKAPKLMIYEGTKRPSGVSNRFSGSKSGNTASLTISGLQAEDEADYYCSSYAGSSTWVFGGGTKLTVLG | 1.2 | 60 | 0.035 | 0.3 | 65.2 | 0.03 |
| mAb15170 (antibody, V domains shown) VH: EVQLVESGGGLVQPGGSLRLSCAATGITVSSNYMSWVRQAPGKGLEWVSLIYSGGSTFYADSVKGRFTISRHNSKNTLYLQMSSLRAEDTAVYYCARDLVDFGMDVWGQGTTVTVSS VL: DIQLTQSPSSLSASVGDRVTITCRASQGISNYLAWYQQKPGKAPKLLIYAASTLQSGVPSRFSGSGSGTDFTLTISSLQPEDFGTYYCQQLNSDSPTFGQGTKVEIKR | 0.6 | 141 | 6.62e-05 | 174 | 120 | 0.000107 |
